Each block holds one binder with its values, some of them ahead of it. Ends that are not written are not given here.
Experiments:
[1] = target: T1, recombinant active wild-type PAI-1 (plasminogen activator inhibitor type 1) (human, UniProt P05121 24-402); test: 6.4 µM active PAI-1 with 200 µM peptide; thermodenaturation, mass spectra, SDS-PAGE
T1 construct: Serpin; Bacterially expressed human PAI-1 (Molecular Innovations), active conformation (>95%); also called wtPAI-1; active PAI-1
From the text: The free peptide was then removed by chromatography on Heparin Sepharose.

PAI-1:tPA complex = target: T2, PAI-1:tPA complex (human, UniProt P00750 36-562); test: solid phase assay on nVn-coated plates, anti-PAI-1 detection (FIG. 27)
T2 construct: also called tPA-PAI-1 complex

PAI-1:uPA complex = target: T3, PAI-1:uPA complex (human, UniProt P00749 21-431); test: as above
T3 construct: also called uPA-PAI-1 complex; UPA-PAI-1

[2] = target: T4, non-covalent PAI-1-anhydrotrypsin complex (human; bovine, UniProt P00760 24-246, anhydrotrypsin (chemically modified active site; the residue is not given)); test: solid phase assay on nVn-coated plates with 1 µM anhydrotrypsin in all wells (FIG. 28)
T4 construct: Formed in the well: 1 µM anhydrotrypsin present during the PAI-1 incubation step; also called PAI-1 in association with anhydrotrypsin
Description: Briefly, Vn at 1 µg/ml in phosphate buffered saline (PBS), was coated overnight onto Immulon 2 (Dynatech) rmicrotiter plates in a volume of 100 μl at 4° C., and all subsequent steps were performed at room temperature. The plates were washed with PBS followed by dH₂O, allowed to air dry for 15 min., and then blocked with 200 μl of 3% bovine serum albumin in PBS for 30 minutes.

[3] = target: T1, recombinant active wild-type PAI-1 …; test: competitive inhibition of active PAI-1 binding to immobilized nVn by solution-phase Vn, ELISA
Description: IC₅₀ values for the inhibition by solution-phase Vn were calculated using a four parameter logistic fit from the GraFit program (Erithacus Software). […] The latter was calculated based on the fit of binding data in the absence of competitor Vn (FIG. 37) by equation 1.

binding result [1]: binds
B1: synthetic RCL peptide Ac-Thr-Val-Ala-Ser-Ser-Ser-Thr-Ala (PAI-1 P14 to P7) (peptide)
peptide: Ac-TVASSSTA
notes: also called eight residue synthetic peptide

Kd (PAI-1:tPA complex): > 100 nM | Kd (PAI-1:uPA complex): > 100 nM | binding result [2]: binds
B2: native human vitronectin (ligand, UniProt P04004 20-478, looked up)
chain: DQESCKGRCTEGFNVDKKCQCDELCSYYQSCCTDYTAECKPQVTRGDVFTMPEDEYTVYDDGEEKNNATVHEQVGGPSLTSDLQAQSKGNPEQTPVLKPEEEAPAPEVGASKPEGIDSRPETLHPGRPQPPAEEELCSGKPFDAFTDLKNGSLFAFRGQYCYELDEKAVRPGYPKLIRDVWGIEGPIDAAFTRINCQGKTYLFKGSQYWRFEDGVLDPDYPRNISDGFDGIPDNVDAALALPAHSYSGRERVYFFKGKQYWEYQFQHQPSQEECEGSSLSAVFEHFAMMQRDSWEDIFELLFWGRTSAGTRQPQFISRDWHGVPGQVDAAMAGRIYISGMAPRPSLAKKQRFRHRNRKGYRSQRGHSRGRNQNSRRPSRATWLSLFSSEESNLGANNYDDYRMDWLVPATCEPIQSVFFFSGDKYYRVNLRTRRVDTVDPPYPRSIAQYWLGCPAPGHL
notes: Predominantly monomeric; also called nVn; native Vn

fold difference of IC50 against solution-phase nVn [3]: ~6 fold
B3: urea denatured human vitronectin (conformationally altered) (ligand, UniProt P04004 20-478, looked up)
chain: DQESCKGRCTEGFNVDKKCQCDELCSYYQSCCTDYTAECKPQVTRGDVFTMPEDEYTVYDDGEEKNNATVHEQVGGPSLTSDLQAQSKGNPEQTPVLKPEEEAPAPEVGASKPEGIDSRPETLHPGRPQPPAEEELCSGKPFDAFTDLKNGSLFAFRGQYCYELDEKAVRPGYPKLIRDVWGIEGPIDAAFTRINCQGKTYLFKGSQYWRFEDGVLDPDYPRNISDGFDGIPDNVDAALALPAHSYSGRERVYFFKGKQYWEYQFQHQPSQEECEGSSLSAVFEHFAMMQRDSWEDIFELLFWGRTSAGTRQPQFISRDWHGVPGQVDAAMAGRIYISGMAPRPSLAKKQRFRHRNRKGYRSQRGHSRGRNQNSRRPSRATWLSLFSSEESNLGANNYDDYRMDWLVPATCEPIQSVFFFSGDKYYRVNLRTRRVDTVDPPYPRSIAQYWLGCPAPGHL
notes: also called dVn; uVn

Source: patent US20030216321A1 (REGENTS OF THE UNIVERSITY OF MICHIGAN, published 2003)
